Experimental findings from publication PMC12741062 (Frontiers in Immunology, 2025) are described below.

B1: TAT-Nb91 recombinant protein (VHH)
VHH: LQESGGGSVQAGGSLKLSCAASGSTFNSCGMGWYRQVPGKERELVSTISDSDTTTYADAVKGRFSISQDKTKNTLYLQMNSLKTEDTARYYCAARSIFAERVCSIHFDSWGQGTQVTVSS
notes: TAT cell-penetrating peptide from HIV; Linker; VHH of Nb91, as the VHH of m11; About 19 kDa; The primers carry HindIII and XhoI sites; also called TAT-Nb91-His; not shown: His6, C-terminal, kept
B2: Nb72 (VHH)
VHH: LQKAGGVSEQAGASLRLSCVLSARIYGRCCLLWFRQDPGNREGISSINTDGKTSYTDSGKDRFTVSQYTDYNILQLQMNSLKPDDTAVYYCGATERVGDICTEYKYRGQGTQVTVSS
B3: Nb70 (VHH)
VHH: LQESGGGSVQAGGSLRLSCTASTFTYISLYMGWFRQAPGKEREGVAGIYAGGGDTYYADSVKGRFTISQDDAKRTVYLQMNSLKPEDTAMYYCAADRGPSRWDFRSWGQGTQVTVSS
B4: Nb67 (VHH)
VHH: LQESGGGLVQAGGSLRLSCTASGLNVDNYEMGWFRQAPGKEREGIAQISCSGAMTYYADSVKGRFTISRDNAKKTLYLQMNSLTPEDTAMYYCAAQTRVCGLWTSRGPEMESDFDAWGQGTQVTVSS
B5: Nb85 (VHH)
VHH: LQESGGGSVQAGGSLRLSCVSSEYSGTIFAMGWFRQAPGKEREGVAVVDSAITKHYADSVKGRFTISRDNAKNRLDLQMDSLKPEDTGMYYCARSRGYLAGASATLRPTNYDDWGQGTQVTVSS
B6: Nb27 (VHH)
VHH: LQESGGGSVQAGGSLKLSCAASGPIFRRCGMGWYRQAPGKEREVVSGINDAGTASYADSVKGRFTISQDNAKNMLYLQMNSLKTEDTAVYYCAGRKYYDVGNYCSVDLYWGQGTQVTVSS

The target in one test is T1, BVDV NS4B-His recombinant protein (Bovine viral diarrhea virus 1, GenBank …, UniProt A0A068L3P0).
T1 construct: also called recombinant NS4B protein
As to the kind of experiment: ELISA; iELISA; 96-well plates coated with NS4B protein (400 ng/well); incubated with TAT-Nb91 or Nb91; anti-camel serum (1:2,000) and HRP-conjugated secondary antibody; OD 450 nm. The note with it: both partners purified. A general note: ELISA stands for enzyme-linked immunosorbent assay.
With B1, the binding result is “binds”.

The next test addresses T2, BVDV NS4B-His recombinant protein (Bovine viral diarrhea virus 1, GenBank …).
T2 construct: also called recombinant NS4B protein
The test can be described thus: ELISA; iELISA; NS4B-His or the control BVDV-NS5A-His as coating antigen; the nine nanobodies added; anti-E-tag detection. The note with it: one partner purified.
Regarding B2, the binding result is “binds”.
With B3, the binding result was “binds”.
Same read-out and setting: next, B4: “binds”; B5: “binds”; B6: “binds”.
